The target in test [1] is T1, human NTB-A (human, UniProt Q96DU3 22-332).
T1 construct: whole, on cells; also called SLAMF6; hNTB-A
T1 sequence (looked up): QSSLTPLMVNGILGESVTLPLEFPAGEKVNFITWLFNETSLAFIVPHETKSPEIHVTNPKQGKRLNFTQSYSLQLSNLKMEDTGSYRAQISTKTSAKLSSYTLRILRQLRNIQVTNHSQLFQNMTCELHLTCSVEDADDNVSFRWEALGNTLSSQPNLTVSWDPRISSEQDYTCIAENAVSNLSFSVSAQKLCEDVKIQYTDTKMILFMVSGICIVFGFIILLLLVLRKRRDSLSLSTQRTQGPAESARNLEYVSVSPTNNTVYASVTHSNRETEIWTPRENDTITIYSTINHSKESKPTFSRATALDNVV
The test is described as follows: flow cytometry competition on NTB-A positive Ramos cells; competitor: AF647-labelled 11A1 at 0.0188 ug/mL; half of the partial effect, not 50% of maximum binding. A general note: Flow cytometry measures light scatter and fluorescence of single cells or particles in a stream.

In test [2] the target is T1, human NTB-A. The test is described as follows: flow cytometry, saturation binding of Alexa Fluor 647-labelled antibody on Ramos cells. Here is the method: Antigen positive Ramos cells were plated at 1×10⁵ cells per well in a 96 well V-bottom plate (Thermo Scientific, Rochester, N.Y.). Three-fold serial dilutions of 2× concentrated antibodies were prepared in FACs buffer (PBS+2% fetal bovine serum+0.02% azide) and were added to the cells in duplicate. The antibody solutions were incubated with cells for 1 hour on ice, protected from light. The cells were washed twice with FACs buffer and analyzed on the LSRII flow cytometer (BD BioSciences, San Jose, Calif.). KD values were determined with GraphPad Prism software (La Jolla, Calif.).

For test [3], the target named is T1, human NTB-A. The test is described as follows: flow cytometry competition on NTB-A positive Ramos cells; competitor: AF647-labelled 11A1 at 0.0188 ug/mL. An excerpt:
To evaluate whether an antibody competes for specific binding to human NTB-A with a mAb comprising the VH and VL domains of the 11A1 mAb (i.e., a VH domain having the amino acid sequence as shown in residues 20-135 of SEQ ID NO:1 and a VL domain having the amino acid sequence as shown in residues 21-140 of SEQ ID NO:2), a competitive binding assay as follows is used.
This assay utilizes a “reference antibody” comprising the 11A1 murine IgG1 antibody (i.e., the 11A1 VH and VL domains in the bivalent structure of a native antibody). NTB-A positive Ramos cells are plated at 2×10⁵ cells per well in a 96 well V-bottom plate (Thermo Scientific, Rochester, N.Y.). […] The antibody solutions are incubated with cells for 1 hour on ice, protected from light. The cells are washed twice with FACs buffer and analyzed on the LSRII flow cytometer (BD BioSciences, San Jose, Calif.). Data are presented as percent of maximum binding. The sample antibody “competes with” the labeled reference antibody for specific binding to NTB-A if the sample antibody reduces the reference antibody's binding to NTB-A to levels less than 45% of maximum binding (i.e., 0 to 45%) at a concentration of 10 μg/ml of unlabeled sample antibody. […]

On to “NT-7 antibody (clone: NT-7 (Biolegend #317208))”, for which the IC50 (read off the curve) with human NTB-A [1] was found to be 0.1 µg/mL.

B1: 26B7 murine IgG1 antibody (antibody, V domains shown)
VH: QVQLLQPGAEVVKPGTSVKLSCKASGYNFTIYWINWVKLRPGQGLEWIGDIHPGRGNTNLNEKFKTKATLTVDTSSSTAYMQLNSLAFEDSALYYCAREDEDWYFDVWGAGTTVTVSS
VL: DIQMNQSPSSLSASLGDTITITCRASQGISIWFNWYQQKSGNIPKLLIYKTSNLHTGVPPRFSGSGSGTDFTLTISSLQPEDIATYYCLQSQSYPYTFGGGTKLEIKR
notes: Murine IgG1; also called mAb 26B7
Take B1: the Kd (as a rule, the equilibrium constant for the complex coming apart) with human NTB-A [2] was found to be 0.16 nM. Further, the “IC50 (read off the curve)” value with human NTB-A [3] was approximately 0.08 µg/mL.

The record behind these values is patent US20150376276A1 (Seagen, published 2015).
